First the molecules themselves.
B1: GRLBD(F602S) (domain or fragment, UniProt P04150 521-777, looked up)
chain: VPATLPQLTPTLVSLLEVIEPEVLYAGYDSSVPDSTWRIMTTLNMLGGRQVIAAVKWAKAIPGFRNLHLDDQMTLLQYSWMSLMAFALGWRSYRQSSANLLCFAPDLIINEQRMTLPCMYDQCKHMLYVSSELHRLQVSYEEYLCMKTLLLLSSVPKDGLKSQELFDEIRMTYIKELGKAIVKREGNSSQNWQRFYQLTKLLDSMHEVVENLLNYCFQTFLDKTMSIEFPEMLAEIITNQIPKYSNGNIKKLLFHQK
B2: MBP-GRLBD(F602S) (domain or fragment, UniProt P04150 521-777, looked up)
chain: B1 chain
B3: Human p23 (natural protein, UniProt Q15185 1-160, looked up)
chain: MQPASAKWYDRRDYVFIEFCVEDSKDVNVNFEKSKLTFSCLGGSDNFKHLNEIDLFHCIDPNDSKHKRTDRSILCCLRKGESGQSWPRLTKERAKLNWLSVDFNNWKDWEDDSDEDMSNFDRFSEMMNNMGGDEDVDLPEVDGADDDSQDSDDEKMPDLE

Test [1] has as its target T1, Human Hsp90α (human, UniProt P07900 1-732). In words: pull-down.
The target in the next test is Human HOP (human, UniProt P31948 1-543). Put plainly: pull-down.
The target of another test is Hsp90(E47A) (human, UniProt P07900 1-732, E47A). In words: pull-down.
For another test, the target named is Hsp90(D93N) (human, UniProt P07900 1-732, D93N). In words: pull-down.
For test [2], the target named is T1, Human Hsp90α. Put plainly: cryo-EM structure.
The test “GRLBD(F602S)” has as its target B1. Put plainly: pull-down.

B1: the binding result in the test with Human Hsp90α [1], in the test with Human HOP, with Hsp90(E47A) and with Hsp90(D93N) was “binds” in each case.

Consider B2, for which the binding result in the test with Human Hsp90α [2] is listed as “binds”.

Turning to B3, the binding result with GRLBD(F602S) and with Human Hsp90α [1] was “binds” in each case.

The values above are taken from PMC4087167 (Cell, 2014).
